Experimental data: IntAct's records for PubMed 17962809

B1: Serine/threonine-protein kinase D2 (Homo sapiens), Q9BZL6 (parent)
chain: MATAPSYPAGLPGSPGPGSPPPPGGLELQSPPPLLPQIPAPGSGVSFHIQIGLTREFVLLPAASELAHVKQLACSIVDQKFPECGFYGLYDKILLFKHDPTSANLLQLVRSSGDIQEGDLVEVVLSASATFEDFQIRPHALTVHSYRAPAFCDHCGEMLFGLVRQGLKCDGCGLNYHKRCAFSIPNNCSGARKRRLSSTSLASGHSVRLGTSESLPCTAEELSRSTTELLPRRPPSSSSSSSASSYTGRPIELDKMLLSKVKVPHTFLIHSYTRPTVCQACKKLLKGLFRQGLQCKDCKFNCHKRCATRVPNDCLGEALINGDVPMEEATDFSEADKSALMDESEDSGVIPGSHSENALHASEEEEGEGGKAQSSLGYIPLMRVVQSVRHTTRKSSTTLREGWVVHYSNKDTLRKRHYWRLDCKCITLFQNNTTNRYYKEIPLSEILTVESAQNFSLVPPGTNPHCFEIVTANATYFVGEMPGGTPGGPSGQGAEAARGWETAIRQALMPVILQDAPSAPGHAPHRQASLSISVSNSQIQENVDIATVYQIFPDEVLGSGQFGVVYGGKHRKTGRDVAVKVIDKLRFPTKQESQLRNEVAILQSLRHPGIVNLECMFETPEKVFVVMEKLHGDMLEMILSSEKGRLPERLTKFLITQILVALRHLHFKNIVHCDLKPENVLLASADPFPQVKLCDFGFARIIGEKSFRRSVVGTPAYLAPEVLLNQGYNRSLDMWSVGVIMYVSLSGTFPFNEDEDINDQIQNAAFMYPASPWSHISAGAIDLINNLLQVKMRKRYSVDKSLSHPWLQEYQTWLDLRELEGKMGERYITHESDDARWEQFAAEHPLPGSGLPTDRDLGGACPPQDHDMQGLAERISVL
partner: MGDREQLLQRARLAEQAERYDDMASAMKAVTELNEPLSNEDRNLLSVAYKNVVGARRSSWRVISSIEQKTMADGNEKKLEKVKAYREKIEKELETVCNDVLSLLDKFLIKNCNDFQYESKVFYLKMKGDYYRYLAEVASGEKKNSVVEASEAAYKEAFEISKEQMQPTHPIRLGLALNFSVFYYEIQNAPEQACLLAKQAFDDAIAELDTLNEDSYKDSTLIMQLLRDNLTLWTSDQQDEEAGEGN

Variants of: B1
Details: with 1433f_human YWHAH

Variant | effect of a mutation on the interaction
S244E;S706E;S710E | disrupting interaction
